Laboratory results published in patent publication US20210252150A1.

Assays:
[1] = target: HA of A/California/04/2009 (H1N1) (influenza A virus (H1N1)) (UniProt P26140); assay: ELISA, recombinant HA
[2] = target: HA of A/duck/Czechoslovakia/1956 (H4); assay: ELISA, recombinant HA
[3] = target: HA of A/Hong Kong/1/1968 (H3N2) (influenza A virus (H3N2)) (UniProt Q91MA7)
[4] = target: HA of A/Hong Kong/1073/99 (H9) (influenza A virus (H9))
[5] = target: HA of A/Indonesia/5/2005 (H5N1) (influenza A virus (H5N1))
[6] = target: HA of A/Netherlands/219/2003 (H7N7) (influenza A virus (H7N7))
[7] = target: HA of A/Shanghai/2/2013 (H7N9) (influenza A virus (H7N9))
[8] = target: HA of A/Singapore/1/1957 (H2) (influenza A virus (H2)) (UniProt Q67333)
[9] = target: HA of A/mallard duck/Astrakhan/263/1982 (H14N5) (influenza A virus (H14N5))
[10] = target: HA of A/shearwater/Western Australia/2576/1979 (H15N9) (influenza A virus (H15N9))

## CR6261 (antibody)
[1]
  EC50: 0.012 µg/mL
[2]
  EC50: 0.023 µg/mL

## rFluA-20 heavy chain mutant C101A (antibody)
[3]
  EC50: 0.13 µg/mL
[4]
  EC50 fold over wild-type rFluA-20: > 100 fold
[5]
  EC50 fold over wild-type rFluA-20: > 100 fold
[6]
  EC50: 0.17 µg/mL
[7]
  EC50 fold over wild-type rFluA-20: > 100 fold
[8]
  EC50: 0.44 µg/mL
[9]
  EC50 fold over wild-type rFluA-20: > 100 fold
[10]
  EC50: 0.11 µg/mL

## rFluA-20 light chain mutant N53A (antibody)
[4]
  EC50: 0.17 µg/mL
[5]
  EC50 fold over wild-type rFluA-20: > 100 fold
[6]
  EC50: 0.05 µg/mL
[7]
  EC50: 0.87 µg/mL
[9]
  EC50 fold over wild-type rFluA-20: > 100 fold
[10]
  EC50: 0.06 µg/mL

## rFluA-20 light chain mutant Q55A (antibody)
[6]
  EC50: 0.17 µg/mL
[10]
  EC50 fold over wild-type rFluA-20: > 100 fold

## rFluA-20 light chain mutant Y49A (antibody)
[6]
  EC50 fold over wild-type rFluA-20: > 100 fold
